Measurements reported in the supplement of paper PMC10567573.

B1: TRAF3IP2 (parent)
chain: FMEKRNQWLVSQLSAASPDTGHDS

Variants of: B1
Assay: protein stability index of a GFP-peptide fusion (GPS, HEK-293T) (PSI 1-6); higher = more stable
Conditions: c terminus: a fixed tail appended
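Note: lentivirally expressed fusions sorted by FACS into six bins by GFP to DsRed ratio, PSI derived from sequencing read proportions per bin multiplied by bin number.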

Protein stability index, by site and new letter:
N6: Q 1.91, W 1.29, M 2.06, H 2.05, L 1.51, K 2.42, P 3.03, Y 1.56, I 1.42, R 2.44, T 1.83, S 2.2, D 2.73, V 2.02, G 3.08, C 1.77, A 2.24
H22: G 2.01, D 2.87, F 2.4, E 3.38, M 2.15, K 2.39, R 1.82, A 3.18, N 2.59, I 1.95, T 3.27, Y 1.94, W 2.05, L 2.29, C 2.8, S 2.33, P 2.94, Q 2.75
S14: Q 2.57, E 2.74, P 2.53, I 2.08, L 1.66, R 2.39, C 2.15, F 1.93, D 3.29, A 2.34, V 1.65, G 2.3, M 2.34, T 2.77, N 2.58, Y 1.63, K 2.41, W 1.89, H 2.48
V10: M 2.74, E 4.34, S 3.5, A 3.61, C 1.99, Y 2.5, Q 2.93, R 3.28, D 4.18, K 3.41, L 2.29, F 1.29, T 3.21, I 2.12, H 3.38, N 3.46, G 3.14, P 2.46
D23: C 1.73, E 2.49, A 2.49
S17: I 2.19, T 3.03, G 2.47, L 2.54, E 2.88, K 2.41, Q 2.63, N 2.35, Y 1.71, H 2.73, D 2.94, M 2.1, W 1.57, P 2.66, C 2.98, R 2.46, V 1.88, F 1.88
L9: E 4.27, A 2.19, S 3.15, F 2.73, Q 3.03, K 2.7, V 1.71, T 2.44, N 3.44, H 3.82, M 2.36, R 2.08, Y 2.9, P 3.83, I 2.9, G 3.34, D 4.31, C 2.41
G21: A 2.72, N 2.56, L 1.78, S 2.18, H 2.2, T 2.44, R 2.62, M 1.77, D 2.47, W 1.63, P 2.75, E 3.22, F 1.58, C 1.8, I 1.8, Y 2.08, V 1.67, K 2.44, Q 2.52
Q12: F 1.94, M 1.68, A 2.04, V 1.53, K 1.77, N 2.81, I 1.89, T 1.7, S 1.77, W 1.45, P 2.71, R 2.33, D 3.21, Y 1.98, C 1.85, L 1.65, E 3.33, H 3.89
L13: F 2.48, S 3.17, W 2.45, Y 2.35, Q 2.5, E 3.2, V 2.61, R 3.01, A 3.73, G 2.47, D 3.45, M 2.48, T 2.67, K 2.84, P 3.13, C 1.91, I 2.17
A16: V 2.26, I 2.26, Y 1.87, G 3.03, C 1.96, P 2.14, T 1.96, F 2.9, M 2.06, Q 2.6, N 2.9, K 2.09, H 2.47, R 1.54, L 1.38, S 2.39, E 2.62, D 2.29
T20: A 2.32, P 1.99, D 2.94, W 1.02, H 2.38, L 1.96, C 2.65, Y 2.64, R 1.89, K 2.47, V 2.75, E 1.75, N 2.1, S 3.24, M 3.13, I 1.74, Q 2.51, F 1.97
P18: G 2.38, K 2.42, S 1.49, R 2.77, C 2.22, A 2.35, V 2.54, I 2.69, Y 2.7, L 1.93, F 1.9, T 2.94, M 2.22, Q 2.09, H 2.08, N 2.5, D 2.88, E 2.62, W 1.67
R5: G 1.71, A 1.97, D 2.99, Q 2.67, Y 1.89, H 2.62, E 3.5, T 2.16, K 2.38, N 1.98, V 1.97, I 1.68, S 2.28, P 1.36, L 1.79, M 2.94, F 1.83, W 3.1, C 2.25
K4: R 2.54, W 1.3, T 2.52, S 2.24, Q 2.57, Y 2.17
W8: R 4.68, M 4.72, F 3.95, K 4.57, A 4.75, S 4.93, I 4.25, N 5.08, E 4.74, L 4.45, C 4.71, G 5.09, T 5.2, D 5.06, H 4.43, V 4.79, P 4.58, Y 4.21, Q 4.63
S11: R 3.3, C 2.22, P 2.9, M 1.71, H 2.63, V 2.4, E 3.27, L 1.46, W 3.25, T 2.19, Y 2.64, D 3.79, G 3.32, I 2.06, A 1.94, Q 2.89, N 3.18, K 2.7
A15: G 2.71, M 1.7, D 2.47, N 2.21, I 1.77, P 2.75, R 3.45, V 1.83, F 1.83, E 2.73, C 2.38, H 2.33, T 2.7, L 2.3, Q 2.34, K 3.53, W 2.29, S 1.79
Q7: M 1.8, W 2.86, C 1.87, Y 2.88, T 1.79, E 2.72, N 2.65, I 2.35, S 1.64, K 3.36, P 1.58, V 1.81, A 1.02, R 2.98, D 3.31, H 2.26
D19: F 1.8, M 2.57, H 2.2, W 1.52, S 2.43, C 2.45, A 3.69, V 1.92, Y 1.41, K 2.28, L 1.92, R 2.9, P 2.33, T 3.02, G 1.7, I 2.52, N 2.4, E 1.91
